Source: PMC8604303, “Polymerization of C9 enhances bacterial cell envelope damage and killing by membrane attack complex pores” (PLoS Pathogens, 2021)

Biological target: the molecule itself
Assay: cell-based or functional assay

B1: wildtype C9 (C9wt) (natural protein)
chain: not shown
modifications: Cy5 at the C-terminus in the binding assays (GGGK-azide sortagged onto LPETGG, then DBCO-Cy5 by copper-free click chemistry)
In the case of B1, the “bacterial viability (CFU) of C5b-8 labelled E. coli MG1655 with 100 nM C9, decrease” value is reported as no less than 1000 fold.
